Results from IntAct's records for PubMed 23297211.

B1: Small glutamine-rich tetratricopeptide repeat-containing protein 2 (Saccharomyces cerevisiae), Q12118 (parent)
chain: MSASKEEIAALIVNYFSSIVEKKEISEDGADSLNVAMDCISEAFGFEREAVSGILGKSEFKGQHLADILNSASRVPESNKKDDAENVEINIPEDDAETKAKAEDLKMQGNKAMANKDYELAINKYTEAIKVLPTNAIYYANRAAAHSSLKEYDQAVKDAESAISIDPSYFRGYSRLGFAKYAQGKPEEALEAYKKVLDIEGDNATEAMKRDYESAKKKVEQSLNLEKTVPEQSRDADVDASQGASAGGLPDLGSLLGGGLGGLMNNPQLMQAAQKMMSNPGAMQNIQKMMQDPSIRQMAEGFASGGGTPNLSDLMNNPALRNMAGNLFGGAGAQSTDETPDNENKQ
partner: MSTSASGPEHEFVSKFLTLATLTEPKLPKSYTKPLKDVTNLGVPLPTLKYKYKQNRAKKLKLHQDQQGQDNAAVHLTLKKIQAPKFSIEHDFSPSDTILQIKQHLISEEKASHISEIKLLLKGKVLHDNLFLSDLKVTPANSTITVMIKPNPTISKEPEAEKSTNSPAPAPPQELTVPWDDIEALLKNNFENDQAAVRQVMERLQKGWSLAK

Variants of: B1
Conditions: with mdy2_yeast MDY2, Q12285

effect of a mutation on the interaction | Variant
decreasing interaction strength | V35A
with no effect | F16Y
disrupting interaction strength | D38R
decreasing interaction strength | D31R
decreasing interaction strength | E42R
